Measured values: publication PMC4052767 (Genes & Development, 2014)
Changes are numbered by the printed parent chain. Names and notes keep the numbering of the source.

T1: Yeast Hat2p (full length) with N-terminal 6xHis tag (yeast (Saccharomyces cerevisiae), UniProt P39984 1-401)
T1 sequence: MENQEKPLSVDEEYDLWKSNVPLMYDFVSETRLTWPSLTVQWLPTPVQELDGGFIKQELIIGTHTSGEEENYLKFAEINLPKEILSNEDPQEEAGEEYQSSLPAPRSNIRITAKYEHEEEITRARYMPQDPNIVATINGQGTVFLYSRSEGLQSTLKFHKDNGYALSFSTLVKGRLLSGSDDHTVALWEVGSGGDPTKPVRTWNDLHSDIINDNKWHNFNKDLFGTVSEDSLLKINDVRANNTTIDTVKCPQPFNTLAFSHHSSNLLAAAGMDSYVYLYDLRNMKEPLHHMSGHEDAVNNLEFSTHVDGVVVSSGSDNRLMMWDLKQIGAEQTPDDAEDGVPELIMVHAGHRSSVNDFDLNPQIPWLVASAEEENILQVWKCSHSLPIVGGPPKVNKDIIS

B1: H3 peptide (residues 1-15), unmodified (peptide)
peptide: ARTKQTARKSTGGKA
B2: Yeast Hat1p (1-320) (enzyme)
chain: MSANDFKPETWTSSANEALRVSIVGENAVQFSPLFTYPIYGDSEKIYGYKDLIIHLAFDSVTFKPYVNVKYSAKLGDDNIVDVEKKLLSFLPKDDVIVRDEAKWVDCFAEERKTHNLSDVFEKVSEYSLNGEEFVVYKSSLVDDFARRMHRRVQIFSLLFIEAANYIDETDPSWQIYWLLNKKTKELIGFVTTYKYWHYLGAKSFDEDIDKKFRAKISQFLIFPPYQNKGHGSCLYEAIIQSWLEDKSITEITVEDPNEAFDDLRDRNDIQRLRKLGYDAVFQKHSDLSDEFLESSRKSLKLEERQFNRLVEMLLLLNNS
B3: Hat1p Y196A (enzyme)
chain: B2 chain with Y196A
B4: Hat1p Y194A (enzyme)
chain: B2 chain with Y194A
B5: Hat1p A163Y (enzyme)
chain: B2 chain with A163Y
B6: Hat1p Y37A (enzyme)
chain: B2 chain with Y37A
B7: Hat1p A202D (enzyme)
chain: B2 chain with A202D

molecular target: T1, Yeast Hat2p (full length) with …; test: crystal structure

Binder | binding result
B1 | binds

molecular target: T1, Yeast Hat2p (full length) with …; test: pull-down

Binder | binding result
B2 | binds
B3 | binds
B4 | binds
B5 | binds
B6 | binds
B7 | binds
